Laboratory results from patent US20060264369, “Aptamers to von Willebrand Factor and their use as thrombotic disease therapeutics” (published 2006).

Legend:
[1] = molecular target: T1, von Willebrand factor A1 domain (Homo sapiens, UniProt P04275 SEQ:13-246); assay: filter; DPBS, 0.1 mg/mL BSA, 24 C; conditions: label: 5'-32P
Method: Based on this initial screen, KDs were determined for 12 of the best vWF dependent binding sequences using the dot blot assay and are reported in column 5 of Table 4 below.

[2] = molecular target: von Willebrand factor A1 domain (human) (Homo sapiens, UniProt P04275 SEQ:13-246); assay: filter; 100 nM protein
Excerpt: When a significant positive ratio of binding of RNA in the presence of human or rabbit vWF A1 domain versus in the absence of protein was seen, the pools were cloned using the TOPO TA cloning kit (Invitrogen, Cat.# 45-0641, Carlsbad, Calif.) according to the manufacturer's instructions. Round 9 and 12 pool templates were cloned and sequenced (125 total sequences), producing 48 unique clones. All unique clones were transcribed, desalted, 5-³²P end-labeled, and assayed in a 3-point dot blot screen (no protein target control, 100 nM human vWF A1 domain (SEQ ID NO 5, FIG. 3), or 100 nM rabbit vWF A1 domain (SEQ ID NO 6, FIG. 3). The data is presented in the third and fourth columns of Table 4 below as the ratio of the fraction of the aptamer bound to the nitrocellulose in the presence of the target protein to the fraction of aptamer bound in the absence of the target protein.

[3] = molecular target: T1, von Willebrand factor A1 domain; assay: filter; DPBS, 0.1 mg/mL BSA, RT; conditions: label: 5'-32P
Method: Based on this initial screen, KD's were determined for 16 of the best vWF dependent binding sequences using the dot blot assay. […] A 6 point protein titration of human vWF A1 domain (SEQ ID NO 5) was used in the dot blot assay (333 nM, 100 nM, 33 nM, 10 nM, 3 nM, 0 nM) in 1× DPBS plus 0.1 mg/mL BSA at room temperature for 30 minutes. KD values were calculated by fitting the equation y=(max/(1+K/protein))+yint using KaleidaGraph (KaleidaGraph v. 3.51, Synergy Software).

[4] = molecular target: von Willebrand factor full length (Homo sapiens, UniProt P04275 SEQ:764-2813); assay: filter; 20 nM protein; conditions: tags: Calbiochem 681300
Method: (§1) When a significant positive ratio of binding of DNA in the presence of human or rabbit vWF A1 domain versus in the absence of protein was seen, the pools were cloned using the TOPO TA cloning kit (Invitrogen Cat.# 45-0641, Carlsbad, Calif.) according to the manufacturer's instructions. […] All unique clones were assayed twice in a 3-point dot blot screen (no protein target control, 20 nM full length human vWF (Calbiochem Cat.# 681300, La Jolla, Calif.), or 20 nM rabbit vWF A1 domain. The data is presented in the third and fourth columns of Table 17 below as the ratio of the fraction of the aptamer bound to the nitrocellulose in the presence of the target protein to the fraction of aptamer bound in the absence of the target protein.

[5] = molecular target: T2, von Willebrand factor A1 domain (rabbit) (Oryctolagus cuniculus); assay: filter; 20 nM protein; conditions: tags: 6xHis
T2 chain: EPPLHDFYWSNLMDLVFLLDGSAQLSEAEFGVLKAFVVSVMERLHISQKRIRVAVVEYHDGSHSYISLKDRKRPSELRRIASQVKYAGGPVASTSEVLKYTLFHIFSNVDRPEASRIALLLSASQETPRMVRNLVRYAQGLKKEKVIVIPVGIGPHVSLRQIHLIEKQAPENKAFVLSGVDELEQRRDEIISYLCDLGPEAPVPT
Method: as §1

B1: AMX201.C8 (ARC840) (ssRNA)
RNA: GGAGCGCACUCAGCCACCCUCGCAAGCAUUUUAAGAAUGACUUGUGCCGCUGGCUGUUUUCGACCUCUCUGCUAGC
modifications: 2'-F pyrimidines
- Kd [1]: 0.2 nM

B2: AMX201.B11 (ssRNA)
RNA: GGAGCGCACUCAGCCACACCGAGGCUGGAUAUCUACGAGAGGAAGUGCUGCUUGAAUUUCGACCUCUCUGCUAGC
modifications: 2'-F pyrimidines
- binding signal [2]: 1.55 ratio to no protein

B3: AMX201.D10 (ssRNA)
RNA: GGAGCGCACUCAGCCACACUGAGGCUGGAUAUCUACGAGAGGAAGUGCUGCUUGGAUUUCGACCUCUCUGCUAGC
modifications: 2'-F pyrimidines
- binding signal [2]: 1.59 ratio to no protein

B4: AMX203.G9 (ARC842) (mixed)
DNA: GGAGCGCACTCAGCCACGGGGTGGGTAGACGGCGGGTATGTGGCTGGTGTCGAAGGGTTTCGACCTCTCTGCTAGC
modifications: 2'-OH purines, deoxy pyrimidines
- Kd [3]: 1.3 nM

B5: AMX205.F7 (ARC841) (mixed)
DNA: GGAGCGCACTCAGCCACACGACATTGGCGGGTTGTAATTACCACGCATGGCTGTTTGTTTCGACCTCTCTGCTAGC
modifications: 2'-OH purines, deoxy pyrimidines
- Kd [3]: 1.5 nM

B6: AMX238.F5 (ssDNA)
DNA: CTACCTACGATCTGACTAGCGGAATGAGAAGCTGGTGGATTGCTCAGGTCTGCTGGCTGCTTACTCTCATGTAGTTCC
- binding signal [4]: 1.05 ratio to no protein
- binding signal [5]: 4.4 ratio to no protein

B7: AMX201.D4 (ssRNA)
RNA: GGAGCGCACUCAGCCACUGGGGCUGAUCUCGCACGAUAGUUCGUGUCAAGGAUGCGUUUUCGACCUCUCUGCUAGC
modifications: 2'-F pyrimidines
- binding signal [2]: 2.23 ratio to no protein

B8: AMX201.H1 (ssRNA)
RNA: GGAGCGCACUCAGCCACUUUACGGUGAAAGUCUCUCGGGGUUCCGAGUUACGGUGCGUUUCGACCUCUCUGCUAGC
modifications: 2'-F pyrimidines
- Kd [1]: 189 nM

B9: AMX206.D8 (mixed)
DNA: GGAGCGCACTCAGCCACGACGGTGATGGATTAGCGCGGTGGATCTTAACGTGCGAGTTTCGACCTCTCTGCTAGC
modifications: 2'-OH purines, deoxy pyrimidines
- Kd [3]: 370 nM

B10: AMX198.C6 (ssRNA)
RNA: GGAGCGCACUCAGCCACGGUGGUCAGUCAGUGAUAUGAUUAAGUUCAGCUGUGGCUGUUUCGACCUCUCUGCUAGC
modifications: 2'-F pyrimidines
- Kd [1]: 249 nM

B11: AMX198.E11 (ssRNA)
RNA: GGAGCGCACUCAGCCACGGUAACAUUGUUUCCGGCGAUUCUUUGAACGCCGUCGUGGUUUCGACCUCUCUGCUAGC
modifications: 2'-F pyrimidines
- Kd [1]: 1060 nM

B12: AMX205.H10 (mixed)
DNA: GGAGCGCACTCAGCCACTGTTGCCGACGGTGATGTATTAACGCGGGCAACGTTGGTGTTTCGACCTCTCTGCTAGC
modifications: 2'-OH purines, deoxy pyrimidines
- Kd [3]: 397 nM

B13: AMX201.H4 (ssRNA)
RNA: GGAGCGCACUCAGCCACUAACGGUUGAUCUCAGGACUAAUAGUCAACAAGGAUGCGUUUCGACCUCUCUGCUAGC
modifications: 2'-F pyrimidines
- binding signal [2]: 1.79 ratio to no protein

B14: AMX205.H9 (mixed)
DNA: GGAGCGCACTCAGCCACGACGGTGATGGATTAGCGCGGTGGAGAAGATGCGCTGTTGTTTCGACCTCTCTGCTAGC
modifications: 2'-OH purines, deoxy pyrimidines
- Kd [3]: 178 nM

B15: AMX198.E5 (ssRNA)
RNA: GGAGCGCACUCAGCCACUUCGACUUUCAUGUCUGAAGUCCCUGCAGUGCGAGAGACGUUUCGACCUCUCUGCUAGC
modifications: 2'-F pyrimidines
- Kd [1]: 172 nM

B16: AMX198.A10 (ssRNA)
RNA: GGAGCGCACUCAGCCACCAGUUAUGCUGGCUUUGGUCUUUGACUGUCUGAGUGUUCGUUUCGACCUCUCUGCUAGC
modifications: 2'-F pyrimidines
- Kd [1]: 1860 nM

B17: AMX236.C1 (ssDNA)
DNA: CTACCTACGATCTGACTAGCGGAATGAGAATGTTGGTGGATTGCTCAGGTCTGCTGGCTGCTTACTCTCATGTAGTTCC
- binding signal [4]: 1.03 ratio to no protein
- binding signal [5]: 3.28 ratio to no protein

B18: AMX236.E2 (ssDNA)
DNA: CTACCTACGATCTGACTAGCGGAATGAGTATGCTGATGGATTGCTCAGGTCTGCTGGCTGCTTACTCTCATGTAGTTCC
- binding signal [4]: 0.93 ratio to no protein
- binding signal [5]: 3.59 ratio to no protein

B19: AMX236.C6 (ssDNA)
DNA: CTACCTACGATCTGACTAGCGGAATGAGAGTGCTGGTGGATTGCTCAGGTCTGCTGGCTGCTTACTCTCATGTAGTTCC
- binding signal [4]: 1.06 ratio to no protein
- binding signal [5]: 5.77 ratio to no protein

B20: AMX238.F6 (ssDNA)
DNA: CTACCTACGATCTGACTAGCGGAATGAGTATGCTGGTGGATTGCTCAGGTCTGCTGGCTGCTTACTCTCATGTAGTTCC
- binding signal [5]: 5.36 ratio to no protein

B21: AMX237.C1 (ssDNA)
DNA: CTACCTACGATCTGACTAGCGGAATGAGGATGCTGGTGGATTGCTCAGGTCTGCTGGCTGCTTACTCTCATGTAGTTCC
- binding signal [4]: 0.76 ratio to no protein
- binding signal [5]: 3.47 ratio to no protein

B22: AMX238.A6 (ssDNA)
DNA: CTACCTACGATCTGACTAGCGGAATGAGAATGCAGATGGATTGCTCAGGTCTGCTGGCTGCTTACTCTCATGTAGTTCC
- binding signal [4]: 0.92 ratio to no protein
- binding signal [5]: 3.47 ratio to no protein

B23: AMX237.B12 (ssDNA)
DNA: CTACCTACGATCTGACTAGCGGAATGAGAATGCAGGTGGATTGCTCAGGTCTGCTGGCTGCTTACTCTCATGTAGTTCC
- binding signal [5]: 4.67 ratio to no protein

B24: AMX237.E10 (ssDNA)
DNA: CTACCTACGATCTGACTAGCGGAATGAGAATGCTGGTGGATTGCTCAGGTCTGCTGGCTGCTTACTCTCATGTAGTTCC
- binding signal [5]: 6.04 ratio to no protein

B25: AMX238.A11 (ssDNA)
DNA: CTACCTACGATCTGACTAGCGGAATGAGAGTGTTGGTGGATTGCTCAGGTCTGCTGGCTGCTTACTCTCATGTAGTTCC
- binding signal [4]: 0.85 ratio to no protein
- binding signal [5]: 4.54 ratio to no protein

B26: AMX201.H3 (ssRNA)
RNA: GGAGCGCACUCAGCCACUAACGGUUGAUCUCAGGACUAAAUAGUCAACAAGGAUGCGUUUCGACCUCUCUGCUAGC
modifications: 2'-F pyrimidines
- Kd [1]: 90 nM

B27: AMX201.G9 (ssRNA)
RNA: GGAGCGCACUCAGCCACUAACGGCUGAUCUCAGGACUAAAUAGUCAACAAGGAUGCGUUUCGACCUCUCUGCUAGC
modifications: 2'-F pyrimidines
- Kd [1]: 182 nM

B28: AMX201.H11 (ssRNA)
RNA: GGAGCGCACUCAGCCACCCUGUCGUCUUUUGGUAGUCAGCCAAAAGCUAGUUGGUUGUUUCGACCUCUCUGCUAGC
modifications: 2'-F pyrimidines
- binding signal [2]: 1.75 ratio to no protein

B29: AMX198.C10 (ssRNA)
RNA: GGAGCGCACUCAGCCACUGGUCCUUAGCUAGUUGUACUAGCGACGCGUUCAGGUGGUUUCGACCUCUCUGCUAGC
modifications: 2'-F pyrimidines
- Kd [1]: 555 nM

B30: AMX198.G1 (ssRNA)
RNA: GGAGCGCACUCAGCCACAACACUAAUGGGGAAAGUUCAAGGAUUCUUGACCGGUGCGUUUCGACCUCUCUGCUAGC
modifications: 2'-F pyrimidines
- Kd [1]: 45 nM

B31: AMX201.G1 (ssRNA)
RNA: GGAGCGCACUCAGCCACGCUCGGUGGGGAAAUUUUAGCCUAAUUGGCUACUUGUGCGUUUCGACCUCUCUGCUAGC
modifications: 2'-F pyrimidines
- Kd [1]: 190 nM

B32: AMX201.B1 (ssRNA)
RNA: GGAGCGCACUCAGCCACAGAGCCCUGAGUGUAUGAUCGCCUAGAUCUAUCGAUGCUUUUUCGACCUCUCUGCUAGC
modifications: 2'-F pyrimidines
- Kd [1]: 19 nM

B33: AMX201.B3 (ssRNA)
RNA: GGAGCGCACUCAGCCACAGAGCCCUGAGUGUAUGAUCGCCGAGAUCUAUCGAUGCUUUUUCGACCUCUCUGCUAGC
modifications: 2'-F pyrimidines
- binding signal [2]: 1.69 ratio to no protein
